Source: the Human Domainome abundance scans (Beltran et al. 2025)
± gives the uncertainty stated by the source.

B1: Protein C-ets-1, residues 55 to 135; numbered along this chain, P14921 (parent)
chain: GFTKEQQRLGIPKDPRQWTETHVRDWVMWAVNEFSLKGVDFQKFCMNGAALCALGKDCFLELAPDFVGDILWEHLEILQKE
B2: Transcription factor SOX-11, residues 50 to 117; numbered along this chain, P35716 (parent)
chain: KRPMNAFMVWSKIERRKIMEQSPDMHNAEISKRLGKRWKMLKDSEKIPFIREAERLRLKHMADYPDYK

Variants of: B1
Assay: abundance fitness (aPCA) (normalised: wild type 0, dead -1); higher = more abundant; growth selection in yeast, the domain comes from the species named
Details: Homo sapiens

Abundance fitness of substitutions, site by site:
L51: W -0.893 ± 0.084
D57: N -0.02 ± 0.063; K 0.017 ± 0.066
C58: V 0.018 ± 0.035; T 0.016 ± 0.042
L62: G -0.461 ± 0.034; Y -0.141 ± 0.1; R -0.103 ± 0.031; E -0.655 ± 0.058
V27: S -0.841 ± 0.046; N -0.796 ± 0.16; I -0.003 ± 0.055; E -1 ± 0.11; W -0.625 ± 0.06; G -0.739 ± 0.037; Y -0.992 ± 0.19
R24: A -0.087 ± 0.046; N -0.062 ± 0.11; W -0.3 ± 0.047; K 0.096 ± 0.075
R16: P -0.643 ± 0.069; I -0.038 ± 0.087; E -0.01 ± 0.06; Q -0.006 ± 0.067
F66: E -0.002 ± 0.069; H 0.095 ± 0.048
E20: I -0.128 ± 0.045; Q -0.021 ± 0.055; L -0.209 ± 0.025
M46: W -0.631 ± 0.11; S -0.724 ± 0.05; F -0.028 ± 0.09
D25: Y -0.027 ± 0.048; I -0.033 ± 0.053
C45: S 0.01 ± 0.035; V -0.05 ± 0.036; N 0.116 ± 0.11; M -0.019 ± 0.05; W -0.041 ± 0.043
P12: N -0.47 ± 0.15; D -0.371 ± 0.067; M -0.747 ± 0.14; T -0.799 ± 0.16
K56: L -0.635 ± 0.054; C -0.814 ± 0.11
L71: A -1.15 ± 0.21; P -0.891 ± 0.1; C -0.834 ± 0.14
I70: A -0.105 ± 0.033; Q -0.035 ± 0.059; Y -0.146 ± 0.067
D14: T -0.62 ± 0.05; Q -0.356 ± 0.045; R -0.684 ± 0.036; E -0.172 ± 0.04
G38: A -0.202 ± 0.039; C -0.334 ± 0.071
G1: S -0.039 ± 0.065; K 0.049 ± 0.24; I -0.077 ± 0.16; C -0.21 ± 0.11
Q6: N -0.136 ± 0.2; E -0.164 ± 0.047; P -0.389 ± 0.062

Variants of: B2
Assay: as above
Details: Homo sapiens

Abundance fitness of substitutions, site by site:
N5: I -0.601 ± 0.071; V -0.491 ± 0.069; C -0.321 ± 0.064; D 0.147 ± 0.055; T 0.149 ± 0.056; Q -0.831 ± 0.27; G -0.433 ± 0.069; Y -0.524 ± 0.061; W -0.438 ± 0.13; H -0.621 ± 0.09; L -0.65 ± 0.075; K -0.956 ± 0.26; P -0.544 ± 0.089; M -0.724 ± 0.15; S 0.104 ± 0.045; F -0.712 ± 0.08; A -0.474 ± 0.096; E -0.172 ± 0.16; R -0.852 ± 0.11
R2: H 0.086 ± 0.077; E -0.165 ± 0.15; Q 0.037 ± 0.14; V 0.118 ± 0.055; S 0.064 ± 0.047; P -0.011 ± 0.085; L 0.037 ± 0.063; Y 0.272 ± 0.061; F 0.091 ± 0.075; D 0.146 ± 0.069; N 0.166 ± 0.059; W -0.97 ± 0.34; M 0.158 ± 0.096; C 0.041 ± 0.054; K -0.041 ± 0.12; G 0.03 ± 0.049; A -0.178 ± 0.079; T 0.282 ± 0.061; I 0.113 ± 0.055
F7: A -0.75 ± 0.12
A6: S -0.531 ± 0.068; G -0.03 ± 0.06; L -0.666 ± 0.087; T -0.767 ± 0.11; N -0.976 ± 0.11; F -0.987 ± 0.1; V -0.629 ± 0.082; H -0.553 ± 0.088; I -0.934 ± 0.12; R -0.776 ± 0.17; Y -0.827 ± 0.096; D -0.751 ± 0.12; M -0.831 ± 0.24; P -0.524 ± 0.11; C -0.634 ± 0.082; E -0.338 ± 0.24; Q -1.05 ± 0.33; W -1.29 ± 0.34
M4: N -0.292 ± 0.058; I 0.158 ± 0.05; W -0.251 ± 0.13; K -0.539 ± 0.23; G -0.28 ± 0.063; E -0.004 ± 0.18; D 0.059 ± 0.065; R -0.874 ± 0.11; L -0.188 ± 0.064; C -0.787 ± 0.11; H -0.423 ± 0.086; Q -0.248 ± 0.15; F -0.186 ± 0.053; Y -0.256 ± 0.06; S -0.334 ± 0.052; V 0.005 ± 0.051; T -0.145 ± 0.079
K1: D 0.21 ± 0.059; F 0.113 ± 0.076; W 0.006 ± 0.2; N 0.077 ± 0.06; L -0.137 ± 0.11; T 0.032 ± 0.082; C -0.056 ± 0.075; Y 0.032 ± 0.065; E 0.258 ± 0.17; I -0.048 ± 0.062; G 0.103 ± 0.058; M -0.421 ± 0.2; S -0.026 ± 0.067
P3: V -0.294 ± 0.086; C -0.442 ± 0.088; M -0.704 ± 0.45; R -0.407 ± 0.077; Q 0.119 ± 0.21; T -0.083 ± 0.076; L -0.118 ± 0.085; S 0.097 ± 0.062; D 0.525 ± 0.076; I -0.279 ± 0.1; A -0.544 ± 0.096; H -0.085 ± 0.077; N 0.199 ± 0.077; F -0.292 ± 0.12; K -0.044 ± 0.18; E 0.073 ± 0.18
